Changes are numbered by the printed parent chain. Names may count otherwise.
B1: H2M1829N (antibody, mouse IgG2, V domains shown)
VH: EVQLVESGGGVVRPGGSLRLSCVASGFTFDDYGMSWVRQAPGKGLECVSGINWNGGSTDYADSVKGRFTISRDNAKNSLYLQMNSLRAEDTALYHCARDGGDWDYFDLWGRGTLVTVSS
VL: EILMTQSPATLSVSPGERATLSCRASQSVSSNLAWYQQKPGQAPRLLIYGASTRATGIPARFSGSGSGTEFTLTISSLQSEDFAIYYCQEYNDWPLTFGGGTKVEIK
B2: H2M1829N (antibody, V domains shown)
VH: B1 VH
VL: B1 VL
notes: Hybridoma chimeric antibody: human variable domains, mouse IgG2 Fc (H2M prefix)
B3: H2M1824N (antibody, V domains shown)
VH: B1 VH with V23A, L93S, H95Y
VL: B1 VL with L3V, I85V, Y87F
notes: as for B2
B4: H2M1827N (antibody, V domains shown)
VH: B1 VH with V23A, N52S, S57N
VL: B1 VL
notes: as for B2
B5: H2M1936N (antibody, mouse IgG2, V domains shown)
VH: EMQLVESGGGLVQPDRSLRLSCAASGFNFDNYAIHWVRQAPGKGLEWVSGISWNSGNIGYADSVKGRFTISRDNAKNSLFLLMNSLRPDDSALYYCTRGYNWNALSPMDVWGQGTTVTVSS
VL: DIQMTQSPSSLSASVGDRVTVTCRASQGISNYLAWYQQKPGKVPKLLIYAASTLQSGVPSRFSGSGSGTDFTLTISSLQPEDVASYYCQNYNSAPMTFGQGTKVEIK
B6: H1M1819N (antibody, V domains shown)
VH: EVQLVESGGGVVRPGGSLRLSCAASGFTFDDYAMHWVRQAPGKGLEWVAGISWNSGSIDYADSVKGRFTISRDNAKNSLYLQMNSLRAGDTALYYCAKDILDLDYYGLDVWGQGTTVTVSS
VL: B5 VL with V21I, G28D, N31S, K45N, A50D, T53S, I75L, V83F, M96Y, V104L
notes: Hybridoma chimeric antibody: human variable domains, mouse constant domains (H1M prefix, mouse Fc)
B7: H2M1821N (antibody, V domains shown)
VH: EVQLVESGGGLVQPGRSLRLSCAASGFTFDDYAMHWVRQAPGKGLEWVSSISWNSGSIGYADSVKGRFTISRDNAKNSLYLQMNSLKPEDTALYYCTKDTDYGDYLDAFDIWGQGTMVAVAS
VL: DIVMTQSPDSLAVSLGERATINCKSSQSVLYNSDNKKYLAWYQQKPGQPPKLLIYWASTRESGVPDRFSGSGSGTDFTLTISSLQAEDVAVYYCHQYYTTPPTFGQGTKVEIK
notes: as for B2
B8: H1M1828N (antibody, V domains shown)
VH: EVQLVESGGGLVQPGRSLRLSCAASGFTFDDYAMYWVRQAPGKGLEWVSGISWNSGSIGYADSVKGRFTISRDNAKNSLYLQMDSLRAEDTALYYCARDMMEVDLYGMDVWGQGTTVTVSS
VL: DIQMTQSPSSVSASVGDRVTITCRASQDISSWLAWYQQKPGTAPKFLIYETSSLQSGVPSRFSGSGSGTDFILTISSLQPEDFATYYCQQTDSFPHTFGQGTKLEIR
B9: H1M1828N (antibody, V domains shown)
VH: B8 VH
VL: B8 VL
notes: as for B6
B10: H2M1930N (antibody, mouse IgG2, V domains shown)
VH: EVQLVESGGGLVKPGGSLRLSCVASGFTFSSYNMNWVRQAPGKGLEWVSFISGSSNYIHYADSVKGRFTISRDNAKNALYLQMNSLRAEDTAVYYCARDDGDYDWFDPWGQGTLVTVSS
VL: EIVLTQSPGTLSLSPGERATLSCRASQSVSSSYLAWYQQKPGQAPRLLIYGTSSRATGIPDRFSGSGSGTDFTLTISRLEPEDFAVYYCQQYDNSYTFGQGTKLEIK
B11: H2M1930N (antibody, V domains shown)
VH: B10 VH
VL: B10 VL
notes: as for B2
B12: H2M1934N (antibody, mouse IgG2, V domains shown)
VH: EVQLVQSGGGLVKPGGSLRLSCAASGFTFSNFNMNWVRQAPGKGLEWVSFISSLSTYTYYADSVKGRFTISRDNAKNSLYLQMNSLRAEDTAVYYCARDDGDHDWFDPWGQGTLVTVSS
VL: B10 VL with G9D, S32N, G51S, T52A, S54N, N94S
B13: H2M1938N (antibody, mouse IgG2, V domains shown)
VH: EVQLVESGGGVVRPGGSLRLSCAASGFTFDDYGMSWVRQVPGKGLEWVSGLNWNGGITGYTDSVKGRFTISRDNAKNSLYLQMNSLRAEDTAFYHCARDSGDQDAFDIWGQGTMVTVSS
VL: QIVMTQSPATLSVSPGERATLSCRASQSITPYLAWYQQKPGQTPRLLIYGVSTRATGIPARFSGSGSGTEFTLTISSLQSEDFAVYYCQQYDNWYTFGQGTKLEIK
B14: H2M1937N (antibody, mouse IgG2, V domains shown)
VH: QVQLQQWDAGLLKPSETLSLTCAVYGGSFSSYYWSWIRQPPGKGLEWIGEINHRGSTNYNPSLKSRVTISVDTSKNQFSLKLRSVTAADTAVYYCARGGVAARPDWHFFDYWGQGTLVTVSS
VL: DIQMTQSPSSLSASVGDRVTITCRASQVIRNDLGWFQQRPGKAPKRLIYAASSLQSEVPSRFSGSGSGTEFTLTITSLQPEDFATYYCLQHNSYPLTFGQGTRLEIK
B15: H1M1940N (antibody, V domains shown)
VH: QVQVVESGGGVVQPGRSLRLSCAASGFTFSDYGMHWVRQAPGKGLEWVAIISYDGSNKYYADSVKGRFTVSRDNSKNTLYLQLDSLRPEDAAVFYCAREGAFNLDYYAMDVWGQGTTVTVSS
VL: AIQMTQSPSSLSASVGDRVTITCRASQDIRNDLGWYQQKPGKAPNLLIYAASSLQSGVPSRFSGSGSGTDFTLTISSLQPEDFATYYCLQDSNYPLTFGGGTKVEIK

Key:
[1] = molecular target: ErbB3 (cell surface, on MCF-7, DU145, A431 and MCF7 cells) (human, UniProt P21860 20-1342); assay: cell-based or functional assay
[2] = molecular target: hErbB3.mmh (soluble monomeric human ErbB3 extracellular domain with C-terminal myc-myc-hexahistidine tag) (human, UniProt P21860 20-642); assay: SPR (Biacore), 25 C, mAb capture format
Description: (§1) (Tables 2-4). Measurements were conducted on a Biacore 2000 or T100 instrument. […] Kinetic association (kₐ) and dissociation (kd) rate constants were determined by processing and fitting the data to a 1:1 binding model using Scrubber 2.0 curve fitting software.

[3] = molecular target: T1, hErbB3.hFc (soluble dimeric human ErbB3 extracellular domain fused to human Fc) (human); assay: SPR (Biacore), 25 C, mAb capture format
T1 construct: called dimeric
Description: as §1

[4] = molecular target: T1, hErbB3.hFc (soluble dimeric human ErbB3 …); assay: blocking ELISA: antibody + 50 pM ErbB3-hFc on neuregulin1b-coated plate
Excerpt: To further characterize anti-hErbB3 mAbs of the present invention, their ability to block ligand binding was examined via ELISA. […] Plates were washed and non-sequestered (plate bound) ErbB3 was detected with an anti-Fc poly conjugated with horseradish peroxidase (HRP). Plates were developed with TMB (3,3′,5,5′-tetramethylbenzidine) and neutralized with sulfuric acid before reading absorbance at 450 nm on a Victor X5 plate reader. Data analysis used a sigmoidal dose-response model within Prism™ software. […] Maximal blocking for each antibody was calculated by taking the difference in absorbance from zero to 50 nM antibody on the inhibition curve, divided by the difference in absorbance from 50 pM to zero ErbB3 on the dose curve.

Chain of hErbB3.mmh (soluble monomeric human ErbB3 extracellular domain with C-terminal myc-myc-hexahistidine tag) (P21860 other isoform, or with tags, fused parts or gaps): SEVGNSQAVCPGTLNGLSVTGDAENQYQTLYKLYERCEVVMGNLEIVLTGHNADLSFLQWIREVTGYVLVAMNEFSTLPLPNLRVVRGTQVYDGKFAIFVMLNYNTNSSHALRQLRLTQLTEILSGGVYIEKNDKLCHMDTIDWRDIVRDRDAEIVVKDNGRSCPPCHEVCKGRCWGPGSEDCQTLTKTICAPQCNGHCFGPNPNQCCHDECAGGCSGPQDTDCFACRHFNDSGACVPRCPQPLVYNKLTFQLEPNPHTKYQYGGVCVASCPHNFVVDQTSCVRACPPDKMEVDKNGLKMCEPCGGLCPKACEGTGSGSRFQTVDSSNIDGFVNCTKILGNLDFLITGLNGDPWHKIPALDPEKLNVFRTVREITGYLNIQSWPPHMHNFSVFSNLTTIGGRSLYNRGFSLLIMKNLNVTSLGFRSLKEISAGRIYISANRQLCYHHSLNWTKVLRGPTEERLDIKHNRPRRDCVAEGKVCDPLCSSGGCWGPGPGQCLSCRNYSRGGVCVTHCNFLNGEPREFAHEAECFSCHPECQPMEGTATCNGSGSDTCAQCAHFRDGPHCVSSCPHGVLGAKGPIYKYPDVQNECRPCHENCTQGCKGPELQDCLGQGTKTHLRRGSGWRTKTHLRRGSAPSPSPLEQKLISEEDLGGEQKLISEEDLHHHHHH
T1 sequence (chain, as listed by the source limits assumed): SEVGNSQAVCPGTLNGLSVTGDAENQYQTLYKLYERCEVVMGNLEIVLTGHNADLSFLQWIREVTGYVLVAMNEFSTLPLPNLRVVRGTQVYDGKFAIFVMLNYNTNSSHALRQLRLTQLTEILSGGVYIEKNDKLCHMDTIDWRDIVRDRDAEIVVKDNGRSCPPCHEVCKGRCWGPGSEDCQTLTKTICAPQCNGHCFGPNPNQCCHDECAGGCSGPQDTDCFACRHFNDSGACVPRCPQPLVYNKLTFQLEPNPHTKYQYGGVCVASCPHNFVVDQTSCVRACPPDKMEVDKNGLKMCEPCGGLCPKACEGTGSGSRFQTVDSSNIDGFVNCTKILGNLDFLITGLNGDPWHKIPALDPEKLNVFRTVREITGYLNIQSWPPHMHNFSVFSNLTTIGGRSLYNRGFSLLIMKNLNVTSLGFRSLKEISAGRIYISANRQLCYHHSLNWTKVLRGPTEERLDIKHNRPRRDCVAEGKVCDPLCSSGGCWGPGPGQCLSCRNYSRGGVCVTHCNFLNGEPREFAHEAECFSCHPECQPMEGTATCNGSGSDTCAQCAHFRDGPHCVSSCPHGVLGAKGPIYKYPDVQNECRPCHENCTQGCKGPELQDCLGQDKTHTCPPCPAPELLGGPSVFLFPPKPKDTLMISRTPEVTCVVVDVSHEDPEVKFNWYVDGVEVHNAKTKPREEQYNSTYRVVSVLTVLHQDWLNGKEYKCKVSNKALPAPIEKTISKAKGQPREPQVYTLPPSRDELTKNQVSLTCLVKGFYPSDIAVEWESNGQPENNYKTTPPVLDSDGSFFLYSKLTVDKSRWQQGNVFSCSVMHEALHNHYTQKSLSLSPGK

Row | Binder | Percent inhibition of Akt phosphorylation, 0.01 µg/ml ErbB3 antibody, DU145 cells + 0.5 nM NRG1 [1] [%] | Percent inhibition of Akt phosphorylation, 0.1 µg/ml ErbB3 antibody, DU145 cells + 0.5 nM NRG1 [1] [%] | Percent inhibition of Akt phosphorylation, 0.5 µg/ml ErbB3 antibody, DU145 cells + 0.5 nM NRG1 [1] [%] | Kd [2] [nM] | T½ [2] [h] | koff [2] [s⁻¹] | kon [2] [M⁻¹ s⁻¹] | Kd [3] [nM] | T½ [3] [h] | koff [3] [s⁻¹] | kon [3] [M⁻¹ s⁻¹] | IC50 [4] [nM] | Maximal Blocking (%) [4] [%]
1 | B1 | 22 | 74 | 74 | – | – | – | – | – | – | – | – | – | –
2 | B2 | – | – | – | 0.281 | 2.98 | 6.46e-05 | 230000 | 0.0198 | 22.4 | 8.61e-06 | 436000 | 0.0238 | 98
3 | B3 | – | – | – | 0.205 | 4.23 | 4.56e-05 | 223000 | 0.00334 | 134 | 1.44e-06 | 431000 | 0.0251 | 99
4 | B4 | – | – | – | 0.409 | 2.15 | 8.96e-05 | 219000 | 0.0173 | 25.4 | 7.58e-06 | 439000 | 0.0229 | 98
5 | B5 | 6 | 30 | 67 | – | – | – | – | – | – | – | – | – | –
6 | B6 | – | – | – | 1.01 | 0.6 | 0.000322 | 319000 | 0.122 | 3.27 | 5.88e-05 | 480000 | 0.0315 | 92
7 | B7 | – | – | – | 0.867 | 0.967 | 0.000199 | 229000 | 0.0413 | 10.1 | 1.9e-05 | 461000 | 0.0285 | 96
8 | B8 | 22 | 66 | 75 | – | – | – | – | – | – | – | – | – | –
9 | B9 | – | – | – | 0.515 | 0.733 | 0.000265 | 513000 | 0.0279 | 4.43 | 4.34e-05 | 1.56e+06 | 0.03 | 95
10 | B10 | 39 | 64 | 66 | – | – | – | – | – | – | – | – | – | –
11 | B11 | – | – | – | 0.559 | 1.77 | 0.000109 | 196000 | 0.0205 | 23.3 | 8.27e-06 | 404000 | 0.0222 | 87
12 | B12 | 20 | 56 | 67 | – | – | – | – | – | – | – | – | – | –
13 | B13 | 40 | 63 | 74 | – | – | – | – | – | – | – | – | – | –
14 | B14 | -13 | 41 | 71 | – | – | – | – | – | – | – | – | – | –
15 | B15 | 13 | 50 | 68 | – | – | – | – | – | – | – | – | – | –

— patent US20140072563A1 (Regeneron, published 2014)
